Source: patent US20100041096

How the values were obtained:
[1] = target: endogenous NPM of 293T cells, P06748
[2] = target: His-Flag-NPM (full length, recombinant, from E. coli), P06748
Sequence of His-Flag-NPM (full length, recombinant, from E. coli), P06748 (P06748 whole entry): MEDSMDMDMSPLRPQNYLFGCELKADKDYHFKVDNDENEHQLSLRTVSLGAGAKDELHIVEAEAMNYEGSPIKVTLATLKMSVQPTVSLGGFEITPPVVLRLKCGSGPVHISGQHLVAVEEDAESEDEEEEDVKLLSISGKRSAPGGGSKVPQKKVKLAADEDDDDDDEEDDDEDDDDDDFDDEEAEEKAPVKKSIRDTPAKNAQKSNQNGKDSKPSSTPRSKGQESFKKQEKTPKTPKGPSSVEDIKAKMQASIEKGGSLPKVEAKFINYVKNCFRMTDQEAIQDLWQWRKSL

Sequence of endogenous NPM of 293T cells, P06748 (P06748 whole entry): as above

B1: Myc-BRCA1(1-772)/BARD1 complex (protein)
chain 1: MDLSALRVEEVQNVINAMQKILECPICLELIKEPVSTKCDHIFCKFCMLKLLNQKKGPSQCPLCKNDITKRSLQESTRFSQLVEELLKIICAFQLDTGLEYANSYNFAKKENNSPEHLKDEVSIIQSMGYRNRAKRLLQSEPENPSLQETSLSVQLSNLGTVRTLRTKQRIQPQKTSVYIELGSDSSEDTVNKATYCSVGDQELLQITPQGTRDEISLDSAKKAACEFSETDVTNTEHHQPSNNDLNTTEKRAAERHPEKYQGSSVSNLHVEPCGTNTHASSLQHENSSLLLTKDRMNVEKAEFCNKSKQPGLARSQHNRWAGSKETCNDRRTPSTEKKVDLNADPLCERKEWNKQKLPCSENPRDTEDVPWITLNSSIQKVNEWFSRSDELLGSDDSHDGESESNAKVADVLDVLNEVDEYSGSSEKIDLLASDPHEALICKSERVHSKSVESNIEDKIFGKTYRKKASLPNLSHVTENLIIGAFVTEPQIIQERPLTNKLKRKRRPTSGLHPEDFIKKADLAVQKTPEMINQGTNQTEQNGQVMNITNSGHENKTKGDSIQNEKNPNPIESLEKESAFKTKAEPISSSISNMELELNIHNSKAPKKNRLRRKSSTRHIHALELVVSRNLSPPNCTELQIDSCSSSEEIKKKKYNQMPVRHSRNLQLMEGKEPATGAKKSNKPNEQTSKRHDSDTFPELKLTNAPGSFTKCSNTSELKEFVNPSLPREEKEEKLETVKVSNNAEDPKDLMLSGERVLQTERSVESSSISLV
chain 2: MPDNRQPRNRQPRIRSGNEPRSAPAMEPDGRGAWAHSRAALDRLEKLLRCSRCTNILREPVCLGGCEHIFCSNCVSDCIGTGCPVCYTPAWIQDLKINRQLDSMIQLCSKLRNLLHDNELSDLKEDKPRKSLFNDAGNKKNSIKMWFSPRSKKVRYVVSKASVQTQPAIKKDASAQQDSYEFVSPSPPADVSERAKKASARSGKKQKKKTLAEINQKWNLEAEKEDGEFDSKEESKQKLVSFCSQPSVISSPQINGEIDLLASGSLTESECFGSLTEVSLPLAEQIESPDTKSRNEVVTPEKVCKNYLTSKKSLPLENNGKRGHHNRLSSPISKRCRTSILSTSGDFVKQTVPSENIPLPECSSPPSCKRKVGGTSGRKNSNMSDEFISLSPGTPPSTLSSSSYRRVMSSPSAMKLLPNMAVKRNHRGETLLHIASIKGDIPSVEYLLQNGSDPNVKDHAGWTPLHEACNHGHLKVVELLLQHKALVNTTGYQNDSPLHDAAKNGHVDIVKLLLSYGASRNAVNIFGLRPVDYTDDESMKSLLLLPEKNESSSASHCSVMNTGQRRDGPLVLIGSGLSSEQQKMLSELAVILKAKKYTEFDSTVTHVVVPGDAVQSTLKCMLGILNGCWILKFEWVKACLRRKVCEQEEKYEIPEGPRRSRLNREQLLPKLFDGCYFYLWGTFKHHPKDNLIKLVTAGGGQILSRKPKPDSDVTQTINTVAYHARPDSDQRFCTQYIIYEDLCNYHPERVRQGKVWKAPSSWFIDCVMSFELLPLDS
[1]
  LC/MS/MS identification of proteins conjugated with Flag-ubiquitin in the reaction of the ligase immunocomplex: Of the proteins identified, nucleophosmin/B23 (NPM) exhibited the highest possibility with 17 peptides displaying a probability based Mowse score of 126

B2: His-BRCA1 (1-304) / His-BARD1 (14-189) (protein)
chain 1: MDLSALRVEEVQNVINAMQKILECPICLELIKEPVSTKCDHIFCKFCMLKLLNQKKGPSQCPLCKNDITKRSLQESTRFSQLVEELLKIICAFQLDTGLEYANSYNFAKKENNSPEHLKDEVSIIQSMGYRNRAKRLLQSEPENPSLQETSLSVQLSNLGTVRTLRTKQRIQPQKTSVYIELGSDSSEDTVNKATYCSVGDQELLQITPQGTRDEISLDSAKKAACEFSETDVTNTEHHQPSNNDLNTTEKRAAERHPEKYQGSSVSNLHVEPCGTNTHASSLQHENSSLLLTKDRMNVEKAEF
chain 2: IRSGNEPRSAPAMEPDGRGAWAHSRAALDRLEKLLRCSRCTNILREPVCLGGCEHIFCSNCVSDCIGTGCPVCYTPAWIQDLKINRQLDSMIQLCSKLRNLLHDNELSDLKEDKPRKSLFNDAGNKKNSIKMWFSPRSKKVRYVVSKASVQTQPAIKKDASAQQDSYEFVSPSPPA
[2]
  in vitro ubiquitination with purified recombinant proteins (anti-Flag immunoblot): two slowly floating products were detected in the gel (lane 7)
